Source: patent publication US20260042848A1 (BIOLEGEND, published 2026)

T1: hAXL recombinant protein (Sino Biological, Catalog #10279-H08H) (human, UniProt P30530 26-449)
T1 construct: Bought soluble protein; also called human AXL recombinant protein; recombinant human AXL protein
T1 sequence: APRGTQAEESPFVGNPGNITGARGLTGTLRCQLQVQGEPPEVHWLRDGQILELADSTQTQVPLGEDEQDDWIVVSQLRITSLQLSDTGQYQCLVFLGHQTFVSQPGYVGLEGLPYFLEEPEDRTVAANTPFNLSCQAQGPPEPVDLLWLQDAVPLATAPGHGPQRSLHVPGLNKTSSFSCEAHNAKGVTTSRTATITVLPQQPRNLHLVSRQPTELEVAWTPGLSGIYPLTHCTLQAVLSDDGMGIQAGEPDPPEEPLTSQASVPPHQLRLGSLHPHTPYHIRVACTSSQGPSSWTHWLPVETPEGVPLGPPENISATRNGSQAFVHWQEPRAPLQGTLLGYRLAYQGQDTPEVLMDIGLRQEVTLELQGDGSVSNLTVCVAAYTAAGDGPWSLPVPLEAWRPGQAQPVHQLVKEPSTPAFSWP

T2: Human AXLΔcyto-IG (human AXL lacking the cytoplasmic domain) on transfected BA/F3 cells (human, UniProt P30530 26-472, limits assumed)
T2 construct: GFP is co-expressed from the vector; also called huAXLΔcyto-IG; human AXL transfected BA/F3 cells
T2 sequence: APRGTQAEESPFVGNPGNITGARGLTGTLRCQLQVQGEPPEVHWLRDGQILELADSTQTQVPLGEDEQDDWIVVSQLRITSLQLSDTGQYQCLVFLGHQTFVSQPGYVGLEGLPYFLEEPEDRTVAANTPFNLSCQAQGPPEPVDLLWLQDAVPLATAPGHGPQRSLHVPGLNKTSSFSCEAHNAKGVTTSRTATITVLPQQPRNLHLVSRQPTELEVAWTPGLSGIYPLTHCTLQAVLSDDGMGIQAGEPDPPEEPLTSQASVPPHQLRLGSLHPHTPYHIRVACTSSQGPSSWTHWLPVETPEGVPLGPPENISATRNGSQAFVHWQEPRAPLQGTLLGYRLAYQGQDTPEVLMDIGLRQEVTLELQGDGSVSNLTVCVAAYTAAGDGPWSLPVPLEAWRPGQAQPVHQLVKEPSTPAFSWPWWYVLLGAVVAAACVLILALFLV

T3: native human AXL on non-transfected human cell lines (A-431, A-549, HeLa, MDA-MB-231, NCI-H1299) (human, UniProt P30530 26-894)
T3 construct: Endogenous AXL of carcinoma cell lines; also called human AXL receptor tyrosine kinase; AXL receptor
T3 sequence: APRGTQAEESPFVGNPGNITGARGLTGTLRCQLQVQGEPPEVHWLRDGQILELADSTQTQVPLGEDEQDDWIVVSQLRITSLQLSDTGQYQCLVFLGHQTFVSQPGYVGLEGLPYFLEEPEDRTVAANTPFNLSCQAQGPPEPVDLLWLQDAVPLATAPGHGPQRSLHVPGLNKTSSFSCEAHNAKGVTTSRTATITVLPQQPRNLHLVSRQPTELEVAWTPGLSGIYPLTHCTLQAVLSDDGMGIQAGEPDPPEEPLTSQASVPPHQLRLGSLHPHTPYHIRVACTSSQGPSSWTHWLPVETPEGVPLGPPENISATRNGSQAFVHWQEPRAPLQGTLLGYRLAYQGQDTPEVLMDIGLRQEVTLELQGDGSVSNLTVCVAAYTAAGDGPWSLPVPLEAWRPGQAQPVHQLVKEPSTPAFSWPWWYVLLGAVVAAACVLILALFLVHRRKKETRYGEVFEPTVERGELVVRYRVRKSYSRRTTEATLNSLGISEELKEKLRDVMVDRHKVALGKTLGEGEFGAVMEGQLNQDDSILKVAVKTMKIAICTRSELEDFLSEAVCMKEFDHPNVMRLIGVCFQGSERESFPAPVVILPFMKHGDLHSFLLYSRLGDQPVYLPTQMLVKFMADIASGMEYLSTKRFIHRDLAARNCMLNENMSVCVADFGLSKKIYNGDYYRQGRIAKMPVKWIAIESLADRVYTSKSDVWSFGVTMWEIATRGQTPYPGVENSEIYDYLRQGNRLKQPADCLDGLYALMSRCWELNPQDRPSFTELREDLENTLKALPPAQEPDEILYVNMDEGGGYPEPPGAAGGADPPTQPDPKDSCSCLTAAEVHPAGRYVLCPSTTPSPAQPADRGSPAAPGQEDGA


What was measured:
[1] = target: T1, hAXL recombinant protein (Sino …); experiment: pre-incubation of antibody with soluble recombinant human AXL, then flow cytometry on human AXL-transfected BA/F3 cells (FIG. 3B)
Procedure: (§1) In each case, cell populations of interest were selected by setting and displaying gates (for visual comparison purposes) based on the corresponding isotype control.
(§2) PE conjugated mIgG1 and mIgG2a, or PU-IgG1 were used as controls. After incubation, 2×10⁶/100 μL of huAXLΔcyto-IG transfected BA/F3 cells were added to each tube, and cells were acquired on a BD Canto II and corresponding data was analyzed by FlowJo.

[2] = target: T2, Human AXLΔcyto-IG (human AXL lacking …); experiment: flow cytometry on Human AXLΔcyto-IG transfected BA/F3 cells, anti-mouse IgG-APC secondary
Procedure: (§3) FIG. 1A depicts surface staining on BA/F3 cells transfected with human AXL, and FIG. 1B depicts surface staining on BA/F3 cells transfected with mGypa (mouse Glycophorin A) as a control. BA/F3 cells (IL-3 dependent mouse pro-B cell line) were used to eliminate the possibility of human proteins being expressed. The transfection efficiency was measured by GFP, which is used to visualize/identify cells that have been transfected and are expressing the vector. GFP (or FITC) on the x-axis identifies cells that are positive for GFP (i.e., cells that have been transfected). […] Cells were then washed and stained with a secondary antibody (anti-mouse IgG-APC).
(§4) In a first experiment, exemplary anti-human AXL antibodies were assessed on an IL-3 dependent murine pro B cell line (BA/F3, RIKEN CELL BANK, Cat #RCB4476), transfected with Human AXLΔcyto-IG (Ba/F3 cells were retrovirally transduced with human AXL lacking the cytoplasmic domain and GFP). […] Cells were then washed twice with FACS wash buffer and stained with anti-mouse IgG-APC secondary antibody for 15 minutes. Cells were washed with FACS buffer and analyzed on a BD Canto II and corresponding data was analyzed by FlowJo.

[3] = target: T3, native human AXL on non-transfected …; experiment: flow cytometry, PE conjugate on A-431, A-549, HeLa, MDA-MB-231 and NCI-H1299 cells
Source text: In contrast, the cell lines used for FIGS. 2F-2G (TH-29 and Jurkat, respectively) are known to be negative for human AXL and were thus used as negative controls.
Once cells reached 80% confluency, cells were detached from the flask using 0.25% Trypsin-0.1% EDTA and suspended in cell staining buffer. […] Cells were washed with FACS buffer and analyzed on a BD Canto II flow cytometer.

[4] = target: mGypa (mouse Glycophorin A) on transfected BA/F3 cells (mouse, UniProt P14220 1-168); experiment: flow cytometry on mGypa-transfected BA/F3 cells, anti-mouse IgG-APC secondary
[5] = target: T1, hAXL recombinant protein (Sino …); experiment: pre-incubation of antibody with soluble recombinant human AXL, then flow cytometry on human AXL-transfected BA/F3 cells (FIG. 3D)
Procedure: as §1, §2

[6] = target: T2, Human AXLΔcyto-IG (human AXL lacking …); experiment: flow cytometry on human AXL-transfected BA/F3 cells, anti-mouse IgG-APC secondary
Procedure: as §3, §4

Row | Binder | binding result [1] | binding result [2] | binding result [3] | binding result [4] | binding result [5] | binding result [6]
1 | AB6 (antibody, V domains shown, Mouse hybridoma monoclonal; also called antibody 6; PE-AB6) VH: EVNLVESGGGLVQPGGSLKLSCATSGFTFSDYYMYWVRQTPEKRLEWVAYISNGGGSTYYPDTVKGRFTISRDNAKNTLYLQMSRLKSEDTAMYYCARLHFYAMDYWGQGTSVTVSS VL: DIVMTQSHKFMSTSVGDRVSITCKASQDVSTAVAWYQQKPGQSPKLLIYWASTRHTGVPDRFTGSGSGTDYTLTISSVQAEDLALYYCQQHYNTPFTFGSGTKLEIK | binds | binds | binds | no binding (tested: 1 ug (printed 'lug')) | – | –
2 | AB3 (antibody, V domains shown, Mouse hybridoma monoclonal; also called antibody 3; PE-AB3) VH: QIQLVQSGPELKKPGETVKISCKASGYTFTNYGMNWVKQAPGKGLKWMGWINTYIGEPTYADDFKGRFAFSLETSASTAYLQINNLKNEDMGTYFCARGTTFYAMDYWGQGTSVTVSS VL: EIVLTQSPTTMAASPGEKITITCSASSSISSNYLHWYQQKPGFSPKLLIYRTSNLASGVPARFSGSGSGTSYSLTIGTMEAEDVATYYCQQGSSILTFGAGTKLELK | – | – | – | no binding (tested: 1 ug (printed 'lug')) | – | –
3 | AB5 (antibody, V domains shown, Mouse hybridoma monoclonal; also called antibody 5; PE-AB5) VH: QIQLVQSGPELKKPGETVKISCKASGYTFTNYGMNWVKQAPGKGLKWMGWINTYTGEPTYADDFKGRFAFSLETSASTAYLQINNLKNEDMATYFCARGDRFYAMDYWGQGTSVTVSS VL: EIVLTQSPTTMAASPGEKITITCSASSSISSNYLHWYQQKPGFSPKLLIYRTSNLASGVPTRFSGSGSGTSYSLTIGTMEAEDVATYYCQQGSSIFTFGSGTKLEIK | binds | binds | binds | no binding (tested: 1 ug (printed 'lug')) | – | –
4 | AB1 (antibody, V domains shown, Mouse hybridoma monoclonal; also called antibody 1; PU-conjugated AB1) VH: DVQLQESGPDLVKPSQSLSLTCTVTGYSITSAYSWHWIRQFPGNKLEWMGYIHYSGSTNYNPSLKSRISITRDTSKNQFFLQLNSVTTEDTATYYCARSLWFYAMDYWGQGTSVTVSS VL: DVQITQSPSYLAASPGETITINCRASKSISKYLAWYQEKPGKTNKLLIYSGSTLQSGIPSRFSGSGSGTDFTLTISSLEPEDFAMYYCQQHNEYPWTFGGGTKLEIK | – | – | – | no binding (tested: 1 ug (printed 'lug')) | binds | binds
5 | AB2 (antibody, V domains shown, Mouse hybridoma monoclonal; also called antibody 2; PE-AB2) VH: DVQLQESGPDLVKPSQSLSLTCTVTGYSITSAYSWHWIRQFPGNKLEWMGYIHYSGSTNYNPSLKSRISITRDTSKNQFFLQLNSVTTEDTATYYCARSLWFYAMDYWGQGTSVTVSS VL: DIQMNQSPSSLSASLGDTITITCHASQNINVWLNWYQQKPGNIPKLLIYKASNLHTGVPSRFSGSGSGTGFTLTISSLQPEDIATYYCQQGQSYPLTFGGGTKLEIK | – | – | – | no binding (tested: 1 ug (printed 'lug')) | – | –
6 | AB4 (antibody, V domains shown, Mouse hybridoma monoclonal; also called antibody 4; PE-AB4) VH: DVQLQESGPDLVKPSQSLSLTCTVTGYSITSAYSWHWIRQFPGNKLEWMGYIHYSGSTNYNPSLKSRISITRDTSKNQFFLQLSSVTTEDTATYYCARSLWFYAMDYWGQGTSVTVSS VL: DVQITQSPSYLAASPGETITIKCRASKSISKYLAWYQEKPGKTNKLLIYSGSTLHSGIPSRFSGSGSGTDFTLTISSLEPEDFAMYYCQQHNEYPWTFGGGTKLEIK | binds | binds | binds | no binding (tested: 1 ug (printed 'lug')) | – | –
